Measured values published in the supplement of paper PMC10567573.
± gives the standard deviation.

Assay: protein stability index of a GFP-peptide fusion (GPS, HEK-293T) (PSI 1-6); higher = more stable
[1] = treatment: DMSO, c terminus: a fixed tail appended
[2] = treatment: MLN4924 1 uM, 8 h, c terminus: a fixed tail appended
[3] = treatment: DMSO, c terminus: native
[4] = treatment: MLN4924 1 uM, 8 h, c terminus: native
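Note: 24-mer peptide tiles fused after GFP, lentivirally expressed, FACS-sorted into six equal bins by GFP/DsRed ratio, decoded by Illumina sequencing, PSI is the read-weighted mean bin number.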

LNKLYPTHACREYLKNLPLLSKYC [TPH1]
protein stability index [1]: 2.41 ± 0.45
protein stability index [2]: 2.23 ± 0.46

HGAVTVGGTSVGSLGVPGSVGGVP [ZBTB22]
protein stability index [1]: 4.02 ± 0.61
protein stability index [2]: 4.06 ± 0.37

ATEWQKAGAPPPSGSAVSTAPQQK [SRPK2]
protein stability index [1]: 5.42 ± 0.14
protein stability index [2]: 5.18 ± 0.21

QMPQGNPLLLSHTLQELLARDTVQ [SNX8]
protein stability index [1]: 3.23 ± 0.086
protein stability index [2]: 3.15 ± 0.27

LEIYQSSQDEPIALDKQHSRDSAA [NOL4L]
protein stability index [1]: 4.89 ± 0.24
protein stability index [2]: 5.16 ± 0.12

LVTGGELFEDIVAREYYSEADASH [CAMK2A]
protein stability index [1]: 3.92 ± 0.37
protein stability index [2]: 3.91 ± 0.17

KRKREEEEEKEPLAVDSWWLDPGH [SERTAD1]
protein stability index [1]: 4.64 ± 0.38
protein stability index [2]: 4.79 ± 0.15

VVRGGEVVHRSDEQQHYFNTPFQL [PPTC7]
protein stability index [1]: 3.26 ± 0.47
protein stability index [2]: 3.43 ± 0.24

TLEELLPPNTRVLRVLPNLPCVVQ [PYCR3]
protein stability index [1]: 2.28 ± 0.28
protein stability index [2]: 2.1 ± 0.38

ALSYAQHTRQLISCGGDGGIVVWN [WDFY2]
protein stability index [1]: 2.16 ± 0.47
protein stability index [2]: 2.12 ± 0.23

GVDWEHIRERPAAIPIEIKSIDDT [STK38L]
protein stability index [1]: 4.68 ± 0.25
protein stability index [2]: 4.99 ± 0.27

RIHSGEKPYGCVECGKAFSRSSIL [ZNF24]
protein stability index [1]: 2.24 ± 0.31
protein stability index [2]: 2.83 ± 0.23

YSSEMKTEDELRVRHLEEENRGIV [AUH]
protein stability index [1]: 4.78 ± 1
protein stability index [2]: 5.35 ± 0.86

PAQVHSSLSAGEKPGFLAPRDLPK [RASAL3]
protein stability index [1]: 4.63 ± 0.34
protein stability index [2]: 4.77 ± 0.41

PPPARGRGAPPPPPSRAPTAAPPP [WASL]
protein stability index [1]: 5.26 ± 0.11
protein stability index [2]: 5.14 ± 0.21

LANPVLESTPVGTVVGLFNVRDRD [PCDHGC5]
protein stability index [1]: 4.08 ± 0.35
protein stability index [2]: 4.06 ± 0.34

SGGSGGRGTGQLNRFVQLSGRPHL [KLHDC10]
protein stability index [1]: 3.48 ± 0.28
protein stability index [2]: 3.65 ± 0.16

APAHVDEQVFLYENARSGAEAEPE [ZBED1]
protein stability index [1]: 5.58 ± 0.21
protein stability index [2]: 5.51 ± 0.28

LALYTPVGAAGSARQELLGDRPRW [ANKRD9]
protein stability index [1]: 3.28 ± 0.27
protein stability index [2]: 2.96 ± 0.21

RDGGLCVNDLAVGLRRLGLHRTEG [SLC25A25]
protein stability index [1]: 3.12 ± 0.16
protein stability index [2]: 2.99 ± 0.14

VSRGPGVNVGTTALWKHLKSMHRE [ZBED2]
protein stability index [1]: 3.22 ± 0.14
protein stability index [2]: 3.3 ± 0.32

RESWDSAKKLPPVQESQSERLQAA [ELOA2]
protein stability index [1]: 5.12 ± 0.17
protein stability index [2]: 5.02 ± 0.086

PQTPEPVEGRKHVDVQTELYLEEI [RSPH3]
protein stability index [1]: 3.78 ± 0.24
protein stability index [2]: 4 ± 0.58

SGEKPYKCSDCGKAFLTKTMLIVH [ZNF649]
protein stability index [1]: 3.52 ± 0.24
protein stability index [2]: 3.68 ± 0.35

SLNRACHQQNKIKDLQKEQKTLQV [CEP70]
protein stability index [1]: 3.53 ± 0.66
protein stability index [2]: 3.45 ± 0.45

SSRSSEESSSDSGSSDSEEERATR [BRD3]
protein stability index [1]: 5.06 ± 0.33
protein stability index [2]: 5.08 ± 0.2

LYRDVMLETFGHLLSIGPELPKPE [ZNF8]
protein stability index [1]: 2.26 ± 0.27
protein stability index [2]: 2.56 ± 0.46

ILQDQEHIFAHRIYLATSSSKFYD [RHOBTB1]
protein stability index [1]: 2.15 ± 0.35
protein stability index [2]: 2.4 ± 0.16

GTIFIRNVLLFKKQNPGKFCLLSC [RETREG3]
protein stability index [1]: 2.7 ± 0.6
protein stability index [2]: 2.89 ± 0.34

YGCKVADIKKVNNFIREQDLYALK [LYSMD4]
protein stability index [1]: 2.27 ± 0.22
protein stability index [2]: 2.39 ± 0.21

TLLPWNFFMTATQYFTNRLDMSQN [SLC29A1]
protein stability index [1]: 2.9 ± 0.49
protein stability index [2]: 2.85 ± 0.37

TEGFTSGRHYWEVEVGDKTHWAVG [TRIM39]
protein stability index [1]: 2.85 ± 0.44
protein stability index [2]: 2.93 ± 1.1

STAKKEDINLSVRKLLNRHNIVFG [TRIP13]
protein stability index [1]: 2.5 ± 0.27
protein stability index [2]: 2.61 ± 0.24

SFINFFTSVLATLVVFAVLGFKAN [SLC6A17]
protein stability index [1]: 4.11 ± 0.85
protein stability index [2]: 3.06 ± 0.36

FACLSVLFVTVTAVNLSVSTLPSL [KCNG1]
protein stability index [1]: 3.15 ± 0.28
protein stability index [2]: 3.46 ± 0.23

DGKLLWEQELYNNFVYNSPRGYFH [WASL]
protein stability index [1]: 2.07 ± 0.24
protein stability index [2]: 2.27 ± 0.41

AEDYLTWKEWGFTGVQEVLSALLR [SPAG8]
protein stability index [1]: 2.28 ± 0.33
protein stability index [2]: 2.19 ± 0.4

ATLAACTSNGWGVTDCKHTEDVGV [LOXL2]
protein stability index [1]: 4.03 ± 0.42
protein stability index [2]: 4.08 ± 0.21

LLKRIKKCCGMRNTDVSMENMVTV [KCNK9]
protein stability index [1]: 2.22 ± 0.52
protein stability index [2]: 2.32 ± 0.25

RIHSGKKPYACDECAKAFSRSAIL [ZNF396]
protein stability index [1]: 2.31 ± 0.4
protein stability index [2]: 2.38 ± 0.33

EEEKKKMEESKAKFENLCKLMKEI [HSP90AB1]
protein stability index [1]: 4.43 ± 0.36
protein stability index [2]: 4.58 ± 0.49

GCCKRRYLQKIEEFAEMVEREEED [KCNG1]
protein stability index [1]: 3.57 ± 0.23
protein stability index [2]: 4 ± 0.53

FAPFIVYYFIMACDQYSCALTGPV [DHCR7]
protein stability index [1]: 3.01 ± 0.077
protein stability index [2]: 3.2 ± 0.2

PQFLHEGLSKPVYVINWFMSFGPE [FAM104B]
protein stability index [1]: 2.68 ± 0.71
protein stability index [2]: 2.97 ± 1.2

NIRPSSSGGYWVGMSTIRPNPGFS [APMAP]
protein stability index [1]: 2.61 ± 1
protein stability index [2]: 2.65 ± 0.37

NVTELLRDVAAWGRARATGGDLEE [DNAAF3]
protein stability index [1]: 3.63 ± 0.15
protein stability index [2]: 3.75 ± 0.31

YLSPRDFLSGLAFRVFHCTQYVRH [TPH1]
protein stability index [1]: 2.31 ± 0.2
protein stability index [2]: 2.08 ± 0.17

SPGSPVGEGTGSPPKWQIGEQEFE [ADD1]
protein stability index [1]: 5.35 ± 0.14
protein stability index [2]: 5.35 ± 0.25

MFPVAPKPQDSSQPSDRLMTEKQQ [CEP70]
protein stability index [1]: 5.28 ± 0.2
protein stability index [2]: 5.24 ± 0.11

ELVENIKSVLKSDEEHMEEAITSA [FAM189A2]
protein stability index [1]: 3.64 ± 0.16
protein stability index [2]: 3.79 ± 0.41

DREVAIYSKESIIFGASSVDFSLS [GNB5]
protein stability index [1]: 2.98 ± 0.17
protein stability index [2]: 3.2 ± 0.27

GQQSDTAQLELYQLQVESNSSQLL [SCARA5]
protein stability index [1]: 4.12 ± 0.13
protein stability index [2]: 4.16 ± 0.15

YSYMSPNKCSGMRFPLQEENSVTH [KMT5A]
protein stability index [1]: 3.35 ± 0.25
protein stability index [2]: 3.14 ± 0.1

GDWSAFNQAPSGPVASSGEFFGSA [CLINT1]
protein stability index [1]: 4.16 ± 0.26
protein stability index [2]: 4.31 ± 0.18

DDFRSKYQTEQSLRLLVESDINSI [KRT34]
protein stability index [1]: 3.77 ± 0.098
protein stability index [2]: 3.94 ± 0.27

IEPYITNFFNQVLMLGKTSISDLS [PDS5B]
protein stability index [1]: 3.01 ± 0.42
protein stability index [2]: 2.91 ± 0.45

WVDITDVPPGDYLFQVVINPNFEV [LOXL2]
protein stability index [1]: 2.94 ± 0.71
protein stability index [2]: 2.91 ± 0.98

AESFLLKSPIAPCSLDKRVILIFH [CDC25B]
protein stability index [1]: 2.75 ± 0.73
protein stability index [2]: 2.68 ± 0.96

AKFDFLTRKHHCRRCGKCFCDRCC [ZFYVE21]
protein stability index [1]: 3.08 ± 0.29
protein stability index [2]: 3.45 ± 0.44

YFTDLFDYLPLTALVDGQIFCLHG [PPP2CA]
protein stability index [1]: 3.22 ± 0.39
protein stability index [2]: 2.91 ± 0.3

LIFSPCSDCEEEEEEEEEEGSGHS [WEE1]
protein stability index [1]: 4.88 ± 0.19
protein stability index [2]: 5.03 ± 0.13

RSVRRERLKEMKLLRDQFVKALED [FAM9B]
protein stability index [1]: 3.22 ± 0.27
protein stability index [2]: 3.05 ± 0.57

AQRKEERWDMADNEQVLTTEHEKK [YJU2B]
protein stability index [1]: 5.57 ± 0.21
protein stability index [2]: 5.6 ± 0.12

LVGDRDVGKSEILESLQDGAAESP [RAB40A]
protein stability index [1]: 5.57 ± 0.17
protein stability index [2]: 5.48 ± 0.21

IDREVDLMMRGVKHHNLEGLRKRI [IQUB]
protein stability index [1]: 3.29 ± 0.32
protein stability index [2]: 3.62 ± 0.27

LTVAKCWDPSPRGCFTLPRSEPIR [DVL3]
protein stability index [1]: 2.43 ± 0.37
protein stability index [2]: 2.62 ± 0.23

NGIGAVLDFTHPKARDWFQGHLRR [MYORG]
protein stability index [1]: 2.75 ± 0.34
protein stability index [2]: 2.64 ± 0.27

LQLYFWKDREFHELQGDFSVPDVP [VPS39]
protein stability index [1]: 2.02 ± 0.46
protein stability index [2]: 2.17 ± 0.22

YNYMMGIEFNPRIGKWFDFKLFFN [DHCR7]
protein stability index [1]: 2.52 ± 0.53
protein stability index [2]: 2.23 ± 0.33

SQVSMWDQRWQDHQPLLPITDVP [APBB1IP]
protein stability index [3]: 2.63 ± 0.55
protein stability index [4]: 3.22 ± 0.51

KNVEENLYSSSLGGGVATSPMLIV [GLT8D2]
protein stability index [1]: 2.26 ± 0.26
protein stability index [2]: 2.06 ± 0.22

GRGNFPTLEITLKDIVQTVRSRLE [TENT5C]
protein stability index [1]: 2.65 ± 0.36
protein stability index [2]: 2.31 ± 0.2

LTEDMYAQDSIELLTTSGIQFKKH [CNOT7]
protein stability index [1]: 3.93 ± 0.23
protein stability index [2]: 4.09 ± 0.32

LELNFKAGDVIFLLSRINKDWLEG [NCF4]
protein stability index [1]: 2.77 ± 0.7
protein stability index [2]: 3.09 ± 1.6

SELGDYDPDECGSDYISEFRFAPN [EPB41L3]
protein stability index [1]: 2.22 ± 0.34
protein stability index [2]: 3.12 ± 0.78

LLEQAGSLKGSLSVEEQLSLISGC [CRYL1]
protein stability index [1]: 2.98 ± 0.32
protein stability index [2]: 3.2 ± 0.39

QEQLLECNKLCGRGQSRQLSPET [SLC2A12]
protein stability index [3]: 4.21 ± 0.43
protein stability index [4]: 4.61 ± 0.46

TDGSVLAAGTHDGSVYFWATPRQV [WSB1]
protein stability index [1]: 2.9 ± 0.18
protein stability index [2]: 2.89 ± 0.37

PVMDVWARKQDMNTKRAIHTLAVM [KLHL14]
protein stability index [1]: 2.34 ± 0.1
protein stability index [2]: 2.33 ± 0.17

DLHFKMFDVGGQRSERKKWIHCFE [GNAI1]
protein stability index [1]: 1.73 ± 0.25
protein stability index [2]: 2.64 ± 0.35

DKCMVCGGDGSGCSKQSGSFRKFR [ADAMTS4]
protein stability index [1]: 2.14 ± 0.11
protein stability index [2]: 3.25 ± 0.85

SPLLSQETAGQKPLSVHRPPTSGC [TSPAN10]
protein stability index [1]: 4.4 ± 0.17
protein stability index [2]: 4.46 ± 0.18

ISSVGGEAMFCDFPKINHGILYDE [CFHR2]
protein stability index [1]: 3.38 ± 0.26

HIIHVWEETGSRFHNCLIQLYCEK [VPS39]
protein stability index [1]: 2.44 ± 0.4
protein stability index [2]: 2.37 ± 0.36

VTSQERHCLQQRRKSVPGPGNRTC [ADAMTSL2]
protein stability index [1]: 4.92 ± 0.42
protein stability index [2]: 4.824 ± 0.006

LFQFSNCSQGQQLATFSSDWEIQE [CCDC3]
protein stability index [1]: 3.12 ± 0.45
protein stability index [2]: 2.94 ± 0.33

IIHVVKDQLIGQGIIVKDARLNGS [TENT5D]
protein stability index [1]: 2.2 ± 0.18
protein stability index [2]: 2.25 ± 0.72

ETRRRMEMAFNTRCKEENTIILQQ [NLN]
protein stability index [1]: 2.66 ± 0.36
protein stability index [2]: 2.98 ± 0.23

PLHLSALRDDVLCARMLYNYGADT [ASB7]
protein stability index [1]: 2.27 ± 0.15
protein stability index [2]: 2.48 ± 0.38
